Substrate in the data set: N[C@H]1C(O)O[C@H](CO)[C@@H](O[C@@H]2O[C@H](CO)[C@H](O)[C@H](O)[C@H]2O)[C@@H]1O
In words: Sialyltransferase activity of ST6Gal 1 assayed with CD73. The format is biochemical, human. The conditions noted are these: other: acceptor varied, CMP-NeuAc fixed at 0.2 mM; pH 7.5. The text has this:
The GDP-Fucose, UDP-Glucose, CMP-NeuAc, CMP, UDP and GDP used in the following experiments were obtained from Sigma-Aldrich (St Louis, Mo.). The recombinant human Fut7, ST6Gal1, CD73, CD39L3, non-specific alkaline phosphatase TNAP, recombinant Clostridium Difficile toxin B (TcdB) containing the glycosyltransferase domain and Malachite Green Phosphate Detection Kit were obtained from R&D Systems (Minneapolis, Minn.). The 3′-Sialyl-N-acetyllactosamine was obtained from V-LABS, Inc (Convington, La.). Unless otherwise specified, each glycosyltransferase reaction was performed in 50 μL of a buffer of 25 mM Tris, 150 mM NaCl, 5 mM MgCl2 and 5 mM MnCl2, at pH 7.5 in a 96-well plate at room temperature for 20 minutes. […] The plate was then read at 620 nm with a multi-well plate reader.
Sialic acid is negatively charged under normal pH conditions, making sialyltransferases more difficult to assay than other glycosyltransferases. […] The results are shown in FIG. 7, and the specific activities against lactosamine and lactose were determined to be 458 and 41 pmol/min/μg respectively, confirming that the enzyme strongly favors lactosamine structure. The apparent Km and Vmax were determined for one substrate while fixing the other by fitting the data to KaleidaGraph 4 program.

B1: ST6Gal 1 (Homo sapiens) (protein)
chain: MIHTNLKKKFSCCVLVFLLFAVICVWKEKKKGSYYDSFKLQTKEFQVLKSLGKLAMGSDSQSVSSSSTQDPHRGRQTLGSLRGLAKAKPEASFQVWNKDSSSKNLIPRLQKIWKNYLSMNKYKVSYKGPGPGIKFSAEALRCHLRDHVNVSMVEVTDFPFNTSEWEGYLPKESIRTKAGPWGRCAVVSSAGSLKSSQLGREIDDHDAVLRFNGAPTANFQQDVGTKTTIRLMNSQLVTTEKRFLKDSLYNEGILIVWDPSVYHSDIPKWYQNPDYNFFNNYKTYRKLHPNQPFYILKPQMPWELWDILQEISPEEIQPNPPSSGMLGIIIMMTLCDQVDIYEFLPSKRKTDVCYYYQKFFDSACTMGAYHPLLYEKNLVKHLNQGTDEDIYLLGKATLPGFRTIHC
notes: purchased R&D Systems
A word on the Km: it is the concentration of substrate that gives half-maximal velocity. As for B1, the Km worked out at 1800 ± 400 µM and the Vmax turned out to be 496 ± 38 pmol/min/µg.
